Assays:
Conditions in all cases: protein: recombinant; tags: His tag removed, GSRM left; label: 5' 32P (PNK)
hPIF1HD F573A = biological target: T1, hPIF1HD F573A (human, UniProt Q9H611 206-620, F573A); assay: EMSA; no nucleotide; 20 mM HEPES-NaOH pH 7.5 (Results say pH 7.2), 135 mM NaCl, 5% glycerol, 1 mM DTT, 1 mg/ml BSA, 20 min at 20 C; 0.4 nM T(35); G4 assay: 0.1 nM G4 DNA, 2% PEG 8000 instead of glycerol, 5 uM T(35) competitor
T1 sequence: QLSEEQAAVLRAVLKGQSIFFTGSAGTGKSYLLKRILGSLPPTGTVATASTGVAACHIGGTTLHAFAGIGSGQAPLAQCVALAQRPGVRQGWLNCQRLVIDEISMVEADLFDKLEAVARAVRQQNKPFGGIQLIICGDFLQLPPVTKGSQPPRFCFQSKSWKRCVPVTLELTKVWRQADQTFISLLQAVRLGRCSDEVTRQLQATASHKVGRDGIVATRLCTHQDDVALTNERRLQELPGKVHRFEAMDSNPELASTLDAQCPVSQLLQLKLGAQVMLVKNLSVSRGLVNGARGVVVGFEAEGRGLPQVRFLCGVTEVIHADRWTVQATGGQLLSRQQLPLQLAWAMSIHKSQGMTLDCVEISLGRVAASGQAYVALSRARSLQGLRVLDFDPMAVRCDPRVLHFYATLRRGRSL

hPIF1HD K485E = biological target: T2, hPIF1HD K485E (human, UniProt Q9H611 206-620, K485E); assay: as above
T2 sequence: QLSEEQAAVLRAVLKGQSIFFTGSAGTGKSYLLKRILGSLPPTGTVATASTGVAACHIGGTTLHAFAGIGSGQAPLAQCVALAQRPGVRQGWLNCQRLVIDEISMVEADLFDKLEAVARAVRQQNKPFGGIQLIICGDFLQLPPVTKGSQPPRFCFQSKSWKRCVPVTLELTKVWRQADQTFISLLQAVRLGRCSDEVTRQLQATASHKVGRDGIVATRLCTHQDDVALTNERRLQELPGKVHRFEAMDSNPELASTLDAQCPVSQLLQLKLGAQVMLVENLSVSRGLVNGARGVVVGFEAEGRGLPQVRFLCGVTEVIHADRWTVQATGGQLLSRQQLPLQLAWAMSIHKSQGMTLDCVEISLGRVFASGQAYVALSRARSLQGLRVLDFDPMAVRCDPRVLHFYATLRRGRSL

hPIF1HD N495A = biological target: T3, hPIF1HD N495A (human, UniProt Q9H611 206-620, N495A); assay: as above
T3 sequence: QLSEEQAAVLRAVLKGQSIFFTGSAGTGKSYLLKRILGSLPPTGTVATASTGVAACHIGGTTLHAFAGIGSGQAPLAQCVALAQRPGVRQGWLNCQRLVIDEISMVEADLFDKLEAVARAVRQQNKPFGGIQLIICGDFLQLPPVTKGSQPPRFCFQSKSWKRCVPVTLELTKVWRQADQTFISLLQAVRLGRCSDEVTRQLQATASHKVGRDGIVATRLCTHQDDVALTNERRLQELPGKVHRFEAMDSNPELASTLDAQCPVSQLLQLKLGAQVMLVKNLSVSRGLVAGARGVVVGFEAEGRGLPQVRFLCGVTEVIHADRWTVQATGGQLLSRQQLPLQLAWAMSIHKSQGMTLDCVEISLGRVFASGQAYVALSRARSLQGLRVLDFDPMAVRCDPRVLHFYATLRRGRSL

hPIF1HD R290A = biological target: T4, hPIF1HD R290A (human, UniProt Q9H611 206-620, R290A); assay: EMSA; no nucleotide; apparent, near saturation not reached; 20 mM HEPES-NaOH pH 7.5 (Results say pH 7.2), 135 mM NaCl, 5% glycerol, 1 mM DTT, 1 mg/ml BSA, 20 min at 20 C; 0.4 nM T(35); G4 assay: 0.1 nM G4 DNA, 2% PEG 8000 instead of glycerol, 5 uM T(35) competitor
T4 sequence: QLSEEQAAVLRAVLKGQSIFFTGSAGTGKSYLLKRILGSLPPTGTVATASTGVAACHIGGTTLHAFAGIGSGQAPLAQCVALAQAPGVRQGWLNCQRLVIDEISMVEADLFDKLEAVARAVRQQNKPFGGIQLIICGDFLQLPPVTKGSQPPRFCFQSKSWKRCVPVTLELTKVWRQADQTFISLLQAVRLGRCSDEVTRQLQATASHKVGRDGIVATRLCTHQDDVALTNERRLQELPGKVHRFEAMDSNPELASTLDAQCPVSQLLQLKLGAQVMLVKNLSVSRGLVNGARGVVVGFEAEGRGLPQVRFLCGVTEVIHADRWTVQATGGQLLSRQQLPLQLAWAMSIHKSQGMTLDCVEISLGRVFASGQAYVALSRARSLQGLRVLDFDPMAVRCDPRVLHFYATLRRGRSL

Binder: TTTTTTTTTTTTTTTTTTTTTTTTTTTTTTTTTTT (ssDNA) [poly-T(35)]
- binding signal (hPIF1HD F573A): > 50 fold decrease in affinity vs WT
- binding signal (hPIF1HD K485E): > 50 fold decrease in affinity vs WT
- binding signal (hPIF1HD N495A): > 50 fold decrease in affinity vs WT
- Kd (hPIF1HD R290A): ~40.4 nM
